For this experiment, the target named is PY-NLS mutants (R206W/Q/G, P209L, and Y210C). Description: co-IP.

The source of these data is paper doi:10.1101/2022.03.17.484791.

“Kapβ2, endogenous in HEK293T cells (from UniProt Q92973 1-898) (receptor)”: the reduction in Kapβ2 interaction against WT lay in the range of 50 to 75%.
